Common to all, as to format: in vivo, Caenorhabditis elegans
Experiment [1] concerns C. elegans wild-type (N2 strain) nematodes. The experiment is described as follows: Fecundity of C. elegans wild-type nematodes fed E. coli producing CED-4. As for the experimental part:
(§1) Constructed expression cassettes generate CED-4 protein in bacteria. […] In this experiment, the ced-4 gene was sub-cloned into the pBAD-DEST49 vector. The pBAD-DEST49-ced-4 construct, and the pBAD-DEST49 empty vector were tested for synthesis of the protein CED-4. The E. coli bacteria strain (TOP 10 chem.) was grown, and once the optical density OD600 reached 0.5, the bacteria was induced by adding L-Arabinose 20% and incubated for four hours at 37° C., 226 rpm in rotary shaker (C24, incubator shaker, Edison, N.J. USA). The production of CED-4 protein was analyzed by SDS 10% acrylamide gel and commassie blue staining.
The genes ced-4 and ced-3 are required for PCD in somatic cells of C. elegans, and a loss-of-function (lf) mutation in any one of them results in increased survival rates of cells that would otherwise be eliminated by PCD. In the experiment summarized by FIG. 5, bacteria carrying the ced-4 gene construct and bacteria carrying an empty vector were grown as described above in Section E, and used to feed C. elegans wild-type nematodes, mutant C. elegans ced-3 nematodes, and mutant C. elegans ced-4 nematodes at L1/L2 stages (refer to FIG. 1). For the experiment described in FIG. 5, C. elegans wild-type (wt), ced-3 (n717) and ced-4 (n1162) strains were synchronized, and the hatched nematodes were raised on a diet consisting of E. coli bacteria producing CED-4. Both nematodes and bacteria were sustained on NGM media and incubated at a temperature between 25° C. and 28° C.
(§2) The effects of CED-4 ingestion on all three different strains of C. elegans used were quantified by population size throughout several generations. After the hatched nematodes fed on either the control bacteria or the CED-4 producing bacteria for 72 hours, the nematodes in each experiment were scored for fecundity over the course of 120 hrs. Fecundity was measured by counting the number of hatched offspring. There were ten experiments replicated for each of the three analyzed C. elegans strains.

Experiment [2] has as its system C. elegans ced-3 (n717) mutant nematodes. The experiment is described as follows: Fecundity of ced-3 mutant C. elegans fed E. coli producing CED-4. The method, then: as §1
(§3) The genes ced-4 and ced-3 are required for PCD in somatic cells of C. elegans, and a loss-of-function (lf) mutation in any one of them results in increased survival rates of cells that would otherwise be eliminated by PCD. […]
as §2

The subject of experiment [3] is C. elegans ced-4 (n1162) mutant nematodes. Briefly: Fecundity of ced-4 mutant C. elegans fed E. coli producing CED-4. The method, then: as §1, §3, §2
Where [4] appears, read: versus non-CED-4 producing bacteria.

B1: CED-4: 549 amino acid C. elegans protein (SEQ. ID 1, GenBank CAA48781.1), about 62 KD, produced recombinantly in E. coli; fed as CED-4 producing bacteria (protein)
chain: MLCEIECRALSTAHTRLIHDFEPRDALTYLEGKNIFTEDHSELISKMSTRLERIANFLRIYRRQASELGPLIDFFNYNNQSHLADFLEDYIDFAINEPDLLRPVVIAPQFSRQMLDRKLLLGNVPKQMTCYIREYHVDRVIKKLDEMCDLDSFFLFLHGRAGSGKSVIASQALSKSDQLIGINYDSIVWLKDSGTAPKSTFDLFTDILLMLKSEDDLLNFPSVEHVTSVVLKRMICNALIDRPNTLFVFDDVVQEETIRWAQELRLRCLVTTRDVEISNAASQTCEFIEVTSLEIDECYDFLEAYGMPMPVGEKEEDVLNKTIELSSGNPATLMMFFKSCEPKTFEKMAQLNNKLESRGLVGVECITPYSYKSLAMALQRCVEVLSDEDRSALAFAVVMPPGVDIPVKLWSCVIPVDICSNEEEQLDDEVADRLKRLSKRGALLSGKRMPVLTFKIDHIIHMFLKHVVDAQTIANGISILEQRLLEIGNNNVSVPERHIPSHFQKFRRSSASEMYPKTTEETVIRPEDFPKFMQLHQKFYDSLKNFACC
Consider B1, for which the “number of hatched offspring (mean)” value in experiment [1] (2 wild-type embryos per experiment, fed bacteria expressing CED-4 72 hours, fecundity scored over 120 hrs, ten experiments) is “about 115 hatched offspring”; in experiment [2] (2 ced-3 mutant embryos per experiment, ingesting CED-4 producing bacteria, ten experiments), “about 220 hatched offspring”; in experiment [3] (2 ced-4 mutant embryos per experiment, exposed to CED-4 producing bacteria, ten experiments) it was “about 236 hatched offspring”. For the same molecule, the “increase in rate of cell death” value in experiment [1] (wild-type fed bacteria expressing CED-4 for 6 days) is “approximately 2 fold”. Further, the “offspring produced relative to those fed bacteria containing empty expression vectors” value in experiment [1] (wild-type, CED-4 fed, t-test p≦0.01) is “less than 50%”. Further, the reduction in fecundity in experiment [1] (wild-type, ingesting bacteria expressing CED-4) was found to be 50%. The “decrease in ced-3 mutant fecundity due to exogenous CED-4” value in experiment [2] (setting [4]) is reported as “statistically insignificant”. For the same molecule, in experiment [3] (setting [4]), the “decrease in ced-4 mutant fecundity due to exogenous CED-4” value is “statistically insignificant”.
